Laboratory results published in patent US20230357420A1 (VILLARIS THERAPEUTICS, published 2023).

Tests used:
[1] = target: T1, Human CD122 human Fc tagged recombinant protein (human, UniProt P14784 27-240); assay: Alphascreen epitope competition: unlabelled VillMAb-1 at log10 -1.9 to 2 nM against VillMab-1 binding to human CD122-Fc (self-competition); CPS (crosstalk-corrected)
T1 construct: also called human CD122-Fc; not shown: human Fc tag
T1 sequence: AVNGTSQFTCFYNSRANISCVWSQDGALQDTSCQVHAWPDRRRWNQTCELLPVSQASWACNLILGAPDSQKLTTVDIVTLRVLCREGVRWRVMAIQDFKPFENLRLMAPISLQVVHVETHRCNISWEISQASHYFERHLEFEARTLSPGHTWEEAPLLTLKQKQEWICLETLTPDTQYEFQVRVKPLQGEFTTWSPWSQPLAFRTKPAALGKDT

[2] = target: T2, Rhesus CD122 (rhesus monkey, UniProt Q38J85 27-551 (cynomolgus entry)); assay: flow cytometry (FACS) on rhIL15Rβ-transfected CHO-K1 cells, anti-human IgG-FITC, GeoMFI
T2 construct: also called rhCD122 on cells
T2 sequence: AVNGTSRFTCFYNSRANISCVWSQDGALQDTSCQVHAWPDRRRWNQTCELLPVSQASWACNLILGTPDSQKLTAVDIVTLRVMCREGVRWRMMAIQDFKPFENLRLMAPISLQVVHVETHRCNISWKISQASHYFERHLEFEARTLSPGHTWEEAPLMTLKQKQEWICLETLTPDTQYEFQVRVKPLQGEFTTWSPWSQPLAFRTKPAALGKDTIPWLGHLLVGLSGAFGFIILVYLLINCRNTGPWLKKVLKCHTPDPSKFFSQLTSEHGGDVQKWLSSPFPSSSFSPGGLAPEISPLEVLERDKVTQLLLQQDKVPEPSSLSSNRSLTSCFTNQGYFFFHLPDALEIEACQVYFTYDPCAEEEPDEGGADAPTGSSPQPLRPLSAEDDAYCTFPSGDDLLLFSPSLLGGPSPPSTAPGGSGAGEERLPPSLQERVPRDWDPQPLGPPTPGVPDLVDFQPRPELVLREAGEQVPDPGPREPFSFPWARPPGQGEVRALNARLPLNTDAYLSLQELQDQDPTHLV
Procedure: (§1) Purified IgGs were tested in FACs for binding to human and rhesus CD122 expressed on CHO-K1 stable cell lines and CHO-K1 wild-type cells. The IgG samples were titrated in three-fold serial dilutions starting at 500 nM to […]. Binding of IgGs was detected with a mouse anti-human IgG conjugated to FITC. Results were analyzed by examining the Mean Fluorescence Intensity (MFI) of 10000 cells per sample in the BL-1 channel detector of a flow cytometer (AttuneTM NxT Acoustic Focusing Cytometer, Invitrogen/ ThermoFisher Scientific).

[3] = target: T3, CILP2 (human, UniProt Q8IUL8 21-1156); assay: Retrogenix cell microarray
T3 construct: whole, on cells; Secreted protein; tether not described; also called cartilage intermediate layer protein 2 (on transfected cells)
T3 sequence (looked up): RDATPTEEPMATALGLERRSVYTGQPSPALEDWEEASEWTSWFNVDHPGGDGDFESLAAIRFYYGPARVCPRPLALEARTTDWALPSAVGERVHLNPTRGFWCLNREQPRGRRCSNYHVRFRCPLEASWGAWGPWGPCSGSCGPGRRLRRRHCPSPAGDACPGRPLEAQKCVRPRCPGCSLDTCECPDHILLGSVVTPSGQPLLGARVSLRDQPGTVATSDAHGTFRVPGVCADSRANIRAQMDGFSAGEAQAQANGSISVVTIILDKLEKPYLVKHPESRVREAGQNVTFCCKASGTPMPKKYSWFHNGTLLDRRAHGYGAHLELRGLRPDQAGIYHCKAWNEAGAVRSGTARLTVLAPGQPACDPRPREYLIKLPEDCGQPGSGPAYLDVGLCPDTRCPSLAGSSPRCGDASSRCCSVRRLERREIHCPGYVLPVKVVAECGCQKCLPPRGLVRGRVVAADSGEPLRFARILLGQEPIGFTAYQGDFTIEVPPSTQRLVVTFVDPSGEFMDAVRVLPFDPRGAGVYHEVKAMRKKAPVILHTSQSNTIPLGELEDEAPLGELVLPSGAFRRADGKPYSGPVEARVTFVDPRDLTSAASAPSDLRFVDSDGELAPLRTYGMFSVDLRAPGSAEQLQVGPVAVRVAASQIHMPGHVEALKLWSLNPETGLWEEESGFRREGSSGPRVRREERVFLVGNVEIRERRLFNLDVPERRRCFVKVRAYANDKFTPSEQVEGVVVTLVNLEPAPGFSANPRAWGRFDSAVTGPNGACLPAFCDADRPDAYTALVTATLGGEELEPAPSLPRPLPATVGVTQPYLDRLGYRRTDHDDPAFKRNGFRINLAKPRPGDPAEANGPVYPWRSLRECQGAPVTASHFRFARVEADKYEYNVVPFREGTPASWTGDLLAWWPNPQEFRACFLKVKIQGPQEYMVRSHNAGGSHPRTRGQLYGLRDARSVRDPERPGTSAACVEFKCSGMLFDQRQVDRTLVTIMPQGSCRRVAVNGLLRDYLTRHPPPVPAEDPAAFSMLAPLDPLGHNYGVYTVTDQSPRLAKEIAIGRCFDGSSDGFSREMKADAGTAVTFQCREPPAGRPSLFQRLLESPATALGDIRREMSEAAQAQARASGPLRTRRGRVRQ

[4] = target: T4, Neudesin (human, UniProt Q9UMX5 32-172); assay: Retrogenix cell microarray
T4 construct: whole, on cells; Secreted protein; the tether is not described; also called NENF; neudesin neurotrophic factor (on transfected cells)

[5] = target: T5, Human CD122 (human, UniProt P14784 27-551); assay: flow cytometry (FACS) on huIL15Rβ-transfected CHO-K1 cells, anti-human IgG-FITC, GeoMFI
T5 construct: also called hCD122; IL2RB
T5 sequence: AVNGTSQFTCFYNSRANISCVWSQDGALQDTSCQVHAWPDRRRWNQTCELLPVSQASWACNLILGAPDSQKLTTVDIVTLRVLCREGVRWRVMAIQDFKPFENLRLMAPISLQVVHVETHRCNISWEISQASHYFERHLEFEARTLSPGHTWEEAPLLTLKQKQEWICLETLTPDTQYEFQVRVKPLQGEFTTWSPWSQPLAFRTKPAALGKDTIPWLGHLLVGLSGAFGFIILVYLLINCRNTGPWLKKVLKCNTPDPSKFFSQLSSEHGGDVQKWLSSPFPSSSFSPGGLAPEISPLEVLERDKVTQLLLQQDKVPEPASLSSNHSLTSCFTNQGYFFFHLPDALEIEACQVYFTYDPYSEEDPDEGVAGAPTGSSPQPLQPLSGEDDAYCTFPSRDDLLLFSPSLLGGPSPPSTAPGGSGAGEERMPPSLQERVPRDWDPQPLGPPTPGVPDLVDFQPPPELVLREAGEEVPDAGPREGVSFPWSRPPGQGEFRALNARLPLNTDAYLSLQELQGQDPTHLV
Procedure: as §1

T4 sequence (Q9UMX5 32-172): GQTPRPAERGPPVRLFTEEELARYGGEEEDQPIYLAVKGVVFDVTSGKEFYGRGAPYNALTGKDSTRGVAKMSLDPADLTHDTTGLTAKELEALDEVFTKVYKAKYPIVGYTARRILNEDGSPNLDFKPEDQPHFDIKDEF

B1: IgG1-MIKβ1 (humanized) (antibody, V domains shown)
VH: EVQLLESGGGLVQPGGSLRLSCAASGFSVTSYGVHWIRQAPGKGLEWLGVIWSGGSTDYNAAFISRLTISKDNSKNTVYFQMNSLQAEDTAIYYCARAGDYNYDGFAYWGQGTLVTVSS
VL: DIVLTQSPSSLSASVGDRVTITCSGSSSVSFMYWYQQRPGKAPRLLIYDTSNLASGVPSRFSGSGSGTSYTFTISSLQPEDIATYYCQQWSTYPLTFGQGTKVEVK
notes: also called VillMab-1; VillMAB-1
With B1 the “IC50 (read off the curve)” value [1] was about 2000 pM, the “EC50 (read off the curve)” value [2] was about 600 pM and the binding result [3] was “no binding”. For the same binder, the binding result [4] was “no binding” and the “EC50 (read off the curve)” value [5] was about 900 pM.
